Entries after “also recorded” stand apart in the source; their conditions may differ.
How the values were obtained:
[1] = tested on: effector memory CD8 T cells (CD8+CD45RA−CCR7− T cells); assay: Proliferating (Ki67+) effector memory CD8 T cells in peripheral blood of patients (flow cytometry); conditions: human, in vivo
Experimental: 100 μL of whole blood was added to fluorochrome-conjugated monoclonal antibodies that bind specifically to cell surface antigens: CD45RA-FITC (clone LEU-18, BD Biosciences cat. no. 335039), CCR7-BV510 (clone 3D12, BD Biosciences, cat. no. 563449), CD8-PerCP-Cy5.5 (clone RPA-T8, BD Biosciences, cat. no. 560662). After incubation on ice, the stained samples were treated with FACS Lysing Solution (BD Biosciences, Catalog No 349202) to lyse erythrocytes. Excess antibody and cell debris were removed by washing with Stain Buffer (BD Biosciences, cat. no. 554656). Following lyse/wash, cells were fixed and permeabilized by incubation with Permeabilizing Solution 2 buffer (BD Biosciences, cat. no. 340973). Next, cells were washed and resuspended in Stain Buffer and incubated on ice with antibody to Ki67 (BV421 B56, BD Biosciences, cat. no. 562899) to detect proliferating cells. After incubation, excess antibody was removed by washing with Stain Buffer. Cells were resuspended in Stain Buffer and acquired on a BD FACSCanto™ II flow cytometer (Becton Dickinson) within 1 hour of staining.

[2] = GEN1046 Phase I dose escalation, safety and dose finding; type: in vivo
Source text: The recommended phase 2 dose (RP2D) was based on a review of the available safety and dosing information and could be lower than the maximum tolerated dose (MTD).

Substance: GEN1046: PD-L1×4-1BB bispecific antibody: PD-L1-547-FEAL combined with CD137-009-HC7LC2-FEAR (SEQ ID NOs: 1, 5, 21, 19; 8, 12, 22, 20)
- Cohort with maximal and more consistent modulation of proliferating CD8+ effector memory T cells [1]: 80 mg
- Doses administered safely ([2]; 1Q3W): up to 1200 mg
- Patients with dose limiting toxicities (DLTs) ([2]; dose escalation): Six
- Severity of most adverse events ([2]; dose escalation): mild to moderate
- Treatment-related bilirubin increases or Grade 4 transaminase elevations ([2]; dose escalation): No treatment-related bilirubin increases or Grade 4 transaminase elevations were observed
- Maximum tolerated dose (MTD) ([2]; dose escalation, 1Q3W): not reached; also recorded: no MTD was determined
- Most frequent adverse events ([2]; patients receiving GEN1046): transaminase elevations, followed by hyperthyroidism, fatigue, nausea, asthenia and neutrophil count decrease

— patent publication US20240109972A1, “ANTIBODY AND TAXANE COMBINATION THERAPY” (Genmab A/S, priority 2020, published 2024)
